The data set concerns the molecule itself. Briefly: crystal structure; hanging drop vapor diffusion; SsoRadA 24 mg/ml in 30 mM Tris-HCl pH 8.0; reservoir 100 mM KCl, 25 mM MgCl2, 15% isopropanol, 50 mM sodium cacodylate pH 6.0; space group P3_(1), 1.93 Å; 3_(1) overwound right-handed filament.

B1: Sulfolobus solfataricus RadA (natural protein, UniProt Q55075 1-324, looked up)
chain: MSNEVEQKKNIKTINDLPGISQTVINKLIEAGYSSLETLAVASPQDLSVAAGIPLSTAQKIIKEARDALDIRFKTALEVKKERMNVKKISTGSQALDGLLAGGIETRTMTEFFGEFGSGKTQLCHQLSVNVQLPPEKGGLSGKAVYIDTEGTFRWERIENMAKALGLDIDNVMNNIYYIRAINTDHQIAIVDDLQELVSKDPSIKLIVVDSVTSHFRAEYPGRENLAVRQQKLNKHLHQLTRLAEVYDIAVIITNQVMARPDMFYGDPTVAVGGHTLYHVPGIRIQLKKSRGNRRIARVVDAPHLPEGEVVFALTEEGIRDAEE
notes: RadA of Sulfolobus solfataricus; Forms a helical filament in the crystal (three protomers per turn, 98 Å pitch; three protomers in the asymmetric unit, each belonging to a filament of its own); also called SsoRadA; wild-type SsoRadA; source: expressed and purified as described previously [16]
For the protein B1, the binding result is reported as “binds”.

The values are drawn from paper PMC1964548, “Structural and Functional Analyses of Five Conserved Positively Charged Residues in the L1 and N-Terminal DNA Binding Motifs of Archaeal RadA Protein” (PLoS ONE, 2007).
